This series concerns MS2 coat protein. Nature of the series: apparent KD of MS2 coat protein; designed switch direction (-1 OFF switch, 1 ON switch): 1; higher = weaker reporter binding. The method, boiled down:
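Three titration conditions were used: no input, 200 uM small-molecule ligand, and an oligonucleotide input. In each, SNAP-549-labelled MS2 coat protein was raised from 0.7 or 1.5 nM, doubling, to 3 µM over designed RNA switches transcribed on Illumina chips by stalled E. coli RNA polymerase. Curve fits of normalised cluster fluorescence gave values whose per-design median over clusters is the apparent KD.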

Setting [1] is: input ligand: microRNA oligo, concentration not stated.
[2] abbreviates: Eterna round: R95, input ligand: FMN 200 uM.
Setting [3] is: Eterna round: R95, input ligand: microRNA oligo, concentration not stated.
Setting [4] is: Eterna round: R95, input ligand: none.

On to “GAAAAGCAGAGAGGAUAUGUCACUCAUGCCGUGACACAUGAGGAUCACCCAUGUUCAAUCCGGCCGCAGAAGGCUCCGCGAAAA [Eternabot solution 25] (Eterna round: R96, puzzle: Same State NG 2)”, for which the “apparent KD of MS2 coat protein” value (input ligand: FMN 200 uM) was found to be 8.9 nM, the “apparent KD of MS2 coat protein” value under setting [1] worked out at 9.13 nM and the “apparent KD of MS2 coat protein” value (input ligand: none) was determined as 10.8 nM.
On to “AGUCCAGCCUGAGCUGGACAAAAGCAUGUACAUGAGGAUCACCCAUGUCAUGUACAAGCUUUUUGCUCGUCUUAAUA [Mat - hsa-mir-208a - Mod of JL - D44] (puzzle: Sensor for hsa-mir-208a)”, for which the “apparent KD of MS2 coat protein” value worked out at 544 nM under setting [2], 15.3 nM under setting [3] and 634 nM under setting [4].
For “AAUACAAAUAGUCAGGAUAUCAAAAAUAAGACAUGAGGAUCACCCAUGUAAUAAGUAAAAGUAAAUGAGAAGGGACAGGGUGAAA [JR_SS002_Sub401] (Eterna round: R96, puzzle: Same State 2)”, under setting [1], the “apparent KD of MS2 coat protein” value was 197 nM.
With “AACAAUCUAUCUGAGGAUAUCAUGAAAUAAACAUGAGGAUCACCCAUGUGCAGGAAAUCUGCAUAUGAGAAGGCAGAUAGAUUGA [salish99_ss2_r3_043] (puzzle: Same State 2)”, the “apparent KD of MS2 coat protein” value by setting is: under setting [2], 33.9 nM; under setting [3], 1240 nM; under setting [4], 4600 nM.
On to “CCGAAAGGAGUAGGAUAUGUAGGAUAUGCCUACAUGAGGAUCACCCAUGUUCGCAUGGCAGAAGGACAGAAGGACACGGAAACG [pwkr ssNG2 2FMN + 1F5.12] (Eterna round: R96, puzzle: Same State NG 2)”, for which the “apparent KD of MS2 coat protein” value reads like this: (input ligand: FMN 200 uM) 101 nM; under setting [1], 113 nM; (input ligand: none) 293 nM.
For “UACAAUCUAUCUGAGGAUAUCAUGAAGAAAACAUGAGGAUCACCCAUGUGCAGGAGAACUGCAAAUGAGAAGGCAGAUAGAUUGU [Mat - Same State 2 - Mod - D1] (puzzle: Same State 2)”, the “apparent KD of MS2 coat protein” value runs as follows: under setting [2], 9.46 nM; under setting [3], 12.9 nM; under setting [4], 13.4 nM.
With “UGUUGUAUUACAGGAUAUCUAUUAGUGUUAUUUAGAGAAGGGUAUUCACAUGAGGAUCACCCAUGUAUAUACGAGGAAGUUGUG [JMF's solution 90] (Eterna round: R96, puzzle: Same State NG 1)”, the “apparent KD of MS2 coat protein” value was determined as 65.1 nM (input ligand: FMN 200 uM), 37.4 nM under setting [1] and 57.4 nM (input ligand: none).
For the sequence “AGAGGAGGAGCAGGAUAUGCGAAGAAGAACGUGGUAGAAGGGCUCAUGCGAUGACAUGAGGAUCACCCAUGUACCUCGCGAGGA [AK SSNG1-V2-9] (Eterna round: R96, puzzle: Same State NG 1)”, the “apparent KD of MS2 coat protein” value by setting is: (input ligand: FMN 200 uM) 414 nM; under setting [1], 130 nM; (input ligand: none) 186 nM.
As to “GACAAUCUAUCUGAGGAUAUCAUGAUAAUAACAUGAGGAUCACCCAUGUGCAGGAAAACUGCAUAUGAGAAGGCAGAUAGAUUGA [Mat - Same State 2 - Mod - D14] (puzzle: Same State 2)”, the “apparent KD of MS2 coat protein” value is, setting by setting: under setting [2], 34.2 nM; under setting [3], 62.3 nM; under setting [4], 294 nM.
For the sequence “UGCUUCGUGUGAGGAUAUGCUGCCGUUUCGGCUGCAGAAGGUACUAUAAUACAUGAGGAUCACCCAUGUCUGUCGGUUUGCGGG [salish99_SSng1_r04_305-lowA] (Eterna round: R96, puzzle: Same State NG 1)”, the “apparent KD of MS2 coat protein” value is, setting by setting: (input ligand: FMN 200 uM) 46.4 nM; under setting [1], 28.8 nM; (input ligand: none) 49.3 nM.
Turning to “GGUCCAGCCUGAGCUGGACUACAGCAUGUACAUGAGGAUCACCCAUGUCAUGUACAAGAAUGUUGUUUGUCUUAAAA [Sensorship 8 - Jieux - Sensor for hsa-mir-208a] (puzzle: Sensor for hsa-mir-208a)”, the “apparent KD of MS2 coat protein” value reads like this: under setting [2], 88.1 nM; under setting [3], 64.3 nM; under setting [4], 118 nM.
Turning to “CAAGUACAUGAGGAUCACCCAUGUGGAAGAGAUGCAGGAUAUGUGGGAGAAGGGAGUGUAACAGAAGGGCAAGGAG [JR_SS!_Sub019] (puzzle: Same State 1)”, the “apparent KD of MS2 coat protein” value under setting [2] was 113 nM, the “apparent KD of MS2 coat protein” value under setting [3] is 71.8 nM and the “apparent KD of MS2 coat protein” value under setting [4] is 109 nM.
Consider “GAGGGCGAAAGCAACAUGAGGAUCACCCAUGUCCUCGGAGGGCAGGAUAUCCGGCGGUAGCCGAAGGAGAAGGGUCGAAAAGAA [AK SSNG3-V2-34] (Eterna round: R96, puzzle: Same State NG 3)”, for which the “apparent KD of MS2 coat protein” value is 34.8 nM (input ligand: FMN 200 uM), 292 nM under setting [1] and 61.1 nM (input ligand: none).
Turning to “GGAAUAUUUACAGGAUAUGAUUUGUAAAUUCGAUCAGAAGGGUAGAUGUCUUACACGACUUGUUACAUGAGGAUCACCCAUGUU [SameState NG1 #9] (Eterna round: R96, puzzle: Same State NG 1)”, the “apparent KD of MS2 coat protein” value (input ligand: FMN 200 uM) came to 41.6 nM, the “apparent KD of MS2 coat protein” value under setting [1] worked out at 48.8 nM and the “apparent KD of MS2 coat protein” value (input ligand: none) was 67.3 nM.
Take “UUACUCAUGUAAGGAUAUGCAGCCGAAACGGCUGCAGAAGGUACUAUAAUACAUGAGGAUCACCCAUGUAAAAUAAAUAAAGUU [Mat - Same State NG 1 - JL mod - D97] (Eterna round: R96, puzzle: Same State NG 1)”: the “apparent KD of MS2 coat protein” value turned out to be 29.1 nM (input ligand: FMN 200 uM), 32 nM under setting [1] and 35.9 nM (input ligand: none).
In the case of “GGUAGGUUACUACCAAUCACAUGAGGAUCACCCAUGUUGUGGGAGGAUAUGGUACCUAUUUGGUACCAGAAGGCCUUAUUAAUU [Fiskers NG3ss - 11] (Eterna round: R96, puzzle: Same State NG 3)”, the “apparent KD of MS2 coat protein” value was 74.8 nM (input ligand: FMN 200 uM), 55.6 nM under setting [1] and 85.2 nM (input ligand: none).
Take “GUUAUACAUGAGGAUCACCCAUGUCAAUGUAGUCGAGGAUAUGGGCAGCUAUGAGGCGUACUAGAAGGCGAAGAGU [JL-ss1-3.12 ViennaUCT mod] (puzzle: Same State 1)”: the “apparent KD of MS2 coat protein” value was determined as 164 nM under setting [2], 374 nM under setting [3] and 309 nM under setting [4].
Turning to “GUUACAUGAGGAUCACCCAUGUAUGUGUGGGAGUAAGUGUCUUAGGAUAUCUGUUAUUUAAGUUAAGAGAAGGAAGAUUGUUGU [JMF's solution 42] (Eterna round: R96, puzzle: Same State NG 3)”, the “apparent KD of MS2 coat protein” value is 92.8 nM (input ligand: FMN 200 uM), 45.6 nM under setting [1] and 82.4 nM (input ligand: none).
As to “GCUAGAAUUAAAGCCAACAUGAGGAUCACCCAUGUAUGUUGGCAGGAUAUCGUUUGCAAAGCAAACGAGAAGGGCCAAACUAGC [Mat - Same State NG 3 - JL Mod - D2] (Eterna round: R96, puzzle: Same State NG 3)”, the “apparent KD of MS2 coat protein” value runs as follows: (input ligand: FMN 200 uM) 43.2 nM; under setting [1], 94.1 nM; (input ligand: none) 125 nM.
Turning to “GUAAUAAAGGAAGGAUAUGGGUAAACGGGAAUCCCAGAAGGUCCACAUGAGGAUCACCCAUGUGGUCCCGAAACCACGGGACCG [Enbive] (Eterna round: R96, puzzle: Same State NG 1)”, the “apparent KD of MS2 coat protein” value by setting is: (input ligand: FMN 200 uM) 84.2 nM; under setting [1], 60.5 nM; (input ligand: none) 75 nM.
As for “GGUAGGUUACUACCAAACAUGAGGAUCACCCAUGUAAAUGGGAAGGAUAUGGUACCUAUUUGGUACCAGAAGGUCCAAAUAAUU [Mat - Same State NG 3 - JL Mod - D95] (Eterna round: R96, puzzle: Same State NG 3)”, the “apparent KD of MS2 coat protein” value runs as follows: (input ligand: FMN 200 uM) 180 nM; under setting [1], 327 nM; (input ligand: none) 1410 nM.
Consider “AAAAUAAGCCCUUGCACAUGAGGAUCACCCAUGUUCGGUUCACAGGAUAUCUAGUCAAACGGGCUGGAGAAGGGUGGCAAGGAC [Xequusceus] (Eterna round: R96, puzzle: Same State NG 3)”, for which the “apparent KD of MS2 coat protein” value is 67.7 nM (input ligand: FMN 200 uM), 278 nM under setting [1] and 227 nM (input ligand: none).
For “AGUCCAGCCUGAGCUGGACAAAAGCAUGUACAUGAGGAUCACCCAUGUUCAUGUACAAGCUUUUUGCUCGUCUGAAU [Mat - hsa-mir-208a - Mod of JL - 47] (puzzle: Sensor for hsa-mir-208a)”, the “apparent KD of MS2 coat protein” value under setting [2] was found to be 709 nM, the “apparent KD of MS2 coat protein” value under setting [3] was 19.9 nM and the “apparent KD of MS2 coat protein” value under setting [4] was 874 nM.
For the sequence “AUACAUGAGGAUCACCCAUGUAAUUAAUUAAUUAAUAAGAUCAAGGAUAUCAGCUCGAAUAGAGCUGAGAAGGUGAUCACAUGU [SSNG3/21-D1] (Eterna round: R96, puzzle: Same State NG 3)”, the “apparent KD of MS2 coat protein” value under setting [1] turned out to be 177 nM.
With “UGCCUGAGUCGAGGAUAUUAUGGAUCCUUUAAUACAUGAGGAUCACCCAUGUAAUUAAUUAUACAUGAGAAGGUGACUCAGGCA [SSNG2/11-B2] (Eterna round: R96, puzzle: Same State NG 2)”, the “apparent KD of MS2 coat protein” value reads like this: (input ligand: FMN 200 uM) 39 nM; under setting [1], 126 nM; (input ligand: none) 289 nM.
Taken in the same sequence, the figures for “GCAAAGGCGGUAGGAUAUCUAGGAUAUGGGAAAGACUAAGUCUGUAGGUCACCUAACCCAGAAGGAGAGAAGGACACCGAAAGG [pwkr ssNG2 2FMN + F9.25] (Eterna round: R96, puzzle: Same State NG 2)” were 617 nM, 9.18 nM and 73.7 nM.
As to “GCUCGACUGAUGGCCUACAUGAGGAUCACCCAUGUGAUUGGGCAGGAUAUCUAGAUGCAGGAUGUAGAGAAGGGCCUGUCGAGC [SameState NG3 #44] (Eterna round: R96, puzzle: Same State NG 3)”, the “apparent KD of MS2 coat protein” value by setting is: (input ligand: FMN 200 uM) 1170 nM; under setting [1], 194 nM; (input ligand: none) 349 nM.

Values taken from the supplement of paper PMC9170038.
